How the values were obtained:
[1] = tested on: rabbit antisera directed against an Amb a II sequence (amino acid 326-338; RAE 50. K); experiment: Western blot of recombinant proteins with monospecific anti-peptide antisera against RAE 50. K; assay type: binding; details: Western blots, data not shown
Text: Proteins or peptides encoded by the cDNA of the present invention can be used, for example, as “purified” allergens. Such purified allergens are useful in the standardization of allergen extracts which are key reagents for the diagnosis and treatment of ragweed allergy. Furthermore, by using peptides based on the sequences listed in FIGS. 2 through 16, anti-peptide antisera or monoclonal antibodies can be made using standard methods. Such reagents can be specifically directed against individual isoforms of Amb a I or Amb a II (i.e., directed against divergent regions/epitopes of the molecule) or can be specific for all forms Amb a I or Amb a II (i.e, directed against common sequences/epitopes). These sera or monoclonal antibodies, directed against Amb a I or Amb a II, can be used to standardize allergen extracts. One such monospecific anti-peptide antisera has already been successfully produced.

[2] = tested on: goat anti-Amb a I antibody; experiment: Western blot of E. coli-expressed recombinant Amb a I / Amb a II with goat anti-Amb a I antibody (FIG. 19); assay type: binding
Description: (§1) Furthermore, full-length and truncated cDNAs encoding several members of the Amb a I multigene family, as well as Amb a II, were cloned in-frame into the expression vector pTrc99 (Amann et al. Gene, 69:301-315, (1988)) and transformed into the JM109 host. Expression of recombinant Amb a I and Amb a II protein was induced by 1 mM isopropyl-β-D-thiogalactopyranoside, cells were harvested, lysozyme treated, sonicated and insoluble inclusion bodies recovered by a low speed centrifugation. Recombinant Amb a I and Amb a II protein present in the recovered pellet was solubilized in buffer containing 8M urea, 50 mM Tris HC1 pH8.0, 50 mM NaCl, 1 mM EDTA, 1 mM dithiothreitol, 1 mM phenylmethylsulfonyl fluoride. After solubilization, the crude urea lysate was dialyzed at 4° C. against PBS. […] This antigenic cross-reactivity is consistent with the observed sequence homology of the cDNAs (see FIG. 16).
Isoelectric focusing was done on a Hoeffer gel apparatus with 15 μg of crude soluble pollen protein. The gel consisted of 7.5% acrylamide with 3.5% Pharmalytes pH 4.5-5.3 (Pharmacia) and 3.5% Ampholines pH 3.5-10 (LKB), run at 13W for 3.5 hours until a constant voltage was reached. The gel section was placed on a slab of 10% acrylamide SDS-PAGE and electrophoresed for 3.5 hours at 40 mA according to the protocol cited. The proteins were transferred overnight in phosphate buffer to 0.1 micron nitrocellulose (Schleicher and Schuell) at 0.2A. The blot was rinsed in blot solution (25 mM Tris-CHl pH 7.5, 0.171 M NaCl, 0.05% Tween-20; Sigma). The first antibody incubation was overnight at room temperature with a […] of goat anti-Amb a I IgC (obtained from Dr. David Marsh) in blot solution. The excess first antibody was removed with three 15 minute rinses with blot solution. The second antibody was a 1:2,500 dilution of biotinylated swine anti-goat IgG (Boehringer-Manneheim) in blot solution for two hours. The blot was then rinsed with blot solution three times for 15 minutes and incubated for 1 hr in blot solution with 2 μCi I^125 streptavidin (Amersham). The blots were rinsed with blot solution until the waste wash was down to background. The blot was then exposed to film at —80° C. overnight. In the case of one-dimensional SDS-PAGE Western blots (FIGS. 17, 19 and 20) the isoelectric focusing step was omitted. When human sera was used to probe the Western blots (FIGS. 17 and 20), 10% human plasma in 1% milk in blot solution was incubated overnight with the blot prior to using as second antibody biotinylated goat anti-human IgE.

[3] = tested on: human IgE (ragweed allergic patient sera); experiment: SDS-PAGE Western blot (and ELISA) of ragweed allergic patient IgE binding to pollen, affinity purified and recombinant Amb a I / Amb a II; set-up: key to IgE binding, summarized Western blot data: −: no signal over background; +−: barely discernable over background; +: clearly positive; ++: strongly positive; +++: highly positive
Description: As represented in FIG. 1A, a selected monoclonal antibody (designated 4B5/B7) which recognizes an Amb a I preparation unsubjected to denaturing conditions was used to affinity purify from pollen extract a single protein, which is referred to as affinity purified Amb a I. This was carried out, using known techniques, by producing the desired monoclonal antibody, isolating it in large quantities from ascites and immobilizing it on Sepharose (Pharmacia). Aqueous pollen extract was passed over the monoclonal antibody-containing column and a protein species was eluted.
as §1
Comparison of human IgE binding to recombinant Amb a I and Amb a II proteins with anti-peptide and monoclonal anti-Amb a I antibodies have provided data consistent with the conclusion that the N-terminal portion (historically referred to as the β-region) of Amb a IA includes the major IgE eptiope(s).
Affinity purified Amb a I was electrophoresed, Western transferred (Towbin et al., Proc. Natl. Acad. Sci. USA, 76:4350 (1979)) and probed with a variety of antibodies, including IgE from an allergic patient (FIG. 17). In pollen extract Amb a I is not only present as an intact 38-KD species, but also characterized by its component 26KD alpha chains and 12-KD beta chains which are formed by enzymatic cleavage. The intact 38-KD species and the alpha chain are clearly detected using rabbit anti-Amb a I, polyclonal affinity purified anti-RAE 16 and monoclonal anti-Amb a I JBIE3-4 (FIG. 17); RAE 16 peptide has the sequence RTDKDLLENGAIC derived from amino-acids […] of Amb a IB, FIG. 16). Affinity purified Amb a I (partial sequence presented in Table 1) as well as chromatographically purified Amb a II (partial sequence presented in Table 2) are bound on Western blots by these antibodies as well as by patient IgE (FIG. 17). The goat anti-Amb a I polyclonal antibody also binds multiple Amb a I and Amb a II species on a two dimensional Western blot of pollen extract (FIG. 18). The Western blot was performed as outlined below. […]

[4] = tested on: rabbit anti-Amb a I polyclonal antibody; experiment: Western blot with rabbit anti-Amb a I polyclonal antibody (FIG. 17); assay type: binding
Text: As is also represented in FIG. 1A, rabbit polyclonal antibodies were produced using the King Antigen E preparation. […] These antibodies were also shown, using a similar technique, to bind to the affinity purified Amb a I described previously (FIG. 17).
It is clear from the antibody reactivity that the 4B5/B7 affinity purified Amb a I has a recognition pattern similar to that of the Amb a I of pollen and skin test reagent with both rabbit polyclonal anti-Amb a I and JB1E3-4 anti-Amb a I monoclonal antibody (FIG. 17).
Affinity purified Amb a I was electrophoresed, Western transferred (Towbin et al., Proc. Natl. Acad. Sci. USA, 76:4350 (1979)) and probed with a variety of antibodies, including IgE from an allergic patient (FIG. 17). In pollen extract Amb a I is not only present as an intact 38-KD species, but also characterized by its component 26KD alpha chains and 12-KD beta chains which are formed by enzymatic cleavage. The intact 38-KD species and the alpha chain are clearly detected using rabbit anti-Amb a I, polyclonal affinity purified anti-RAE 16 and monoclonal anti-Amb a I JBIE3-4 (FIG. 17); RAE 16 peptide has the sequence RTDKDLLENGAIC derived from amino-acids 343-353 of Amb a IB, FIG. 16). […]

B1: Amb a II: E. coli expressed recombinant Amb a II (Antigen K) (protein)
chain: LYFTLALVTLVQAGRLGEEVDILPSPNDTRRSLQGCEAHNIIDKCWRCKPDWAENRQALGDCAQGFGKATHGGKWGDIYMVTSDQDDDVVNPKEGTLRFGATQDRPLWIIFQRDMIIYLQQEMVVTSDTTIDGRGAKVELVYGGITLMNVKNVIIHNIDIHDVRVLPGGRIKSNGGPAIPRHQSDGDAIHVTGSSDIWIDHCTLSKSFDGLVDVNWGSTGVTISNCKFTHHEKAVLLGASDTHFQDLKMHVTLAYNIFTNTVHERMPRCRFGFFQIVNNFYDRWDKYAIGGSSNPTILSQGNKFVAPDFIYKKNVCLRTGAQEPEWMTWNWRTQNDVLENGAIFVASGSDPVLTAEQNAGMMQAEPGDMVPQLTMNAGVLTCSPGAPC
- Binding by rabbit anti-RAE 50. K antisera (in words) [1]: binds specifically
- Binding by goat anti-Amb a I antibody (in words) [2]: binds specifically
- IgE binding, summarized Western blot data ([3]; patient 151): +
- IgE binding, summarized Western blot data ([3]; patient 222): +
- IgE binding, summarized Western blot data ([3]; patient 291): +−
- IgE binding, summarized Western blot data ([3]; patient 295): −
- IgE binding, summarized Western blot data ([3]; patient 296): −

B2: chromatographically purified Amb a II: chromatographically purified Amb a II (Antigen K) from ragweed pollen (protein)
chain: GEEVDILPSPNDTRRSLQGCEAHNIIDKCWRCKPDWAENRQALGNCAQGFGKATHGGKWGDIYMVTSDQDDDVVNPKEGTLRFGATQDRPLWIIFQRDMIIYLQQEMVVTSDKTIDGRGAKVELVYGGITLMNVKNVIIHNIDIHDVRVLPGGRIKSNGGPAIPRHQSDGDAIHVTGSSDIWIDHCTLSKSFDGLVDVNWGSTGVTISNCKFTHHEKAVLLGASDTHFQDLKMHVTLAYNIFTNTVHERMPRCRFGFFQIVNNFYDRWDKYAIGGSSNPTILSQGNKFVAPDFIYKKNVCLRTGAQEPEWMTWNWRTQNDVLENGAIFVASGSDPVLTAEQNAGMMQAEPGDMVPQLTMNAGVLTCSPGAPC
- Binding by rabbit anti-Amb a I polyclonal antibodies (in words) [4]: cross-reactive B-cell epitopes
- Human IgE binding (in words) ([3]; Western blot (FIG. 17) and/or ELISA, ragweed allergic patient IgE): bound
